In patent US20050119464:

Assays:
[1] = target: Fc-fragment generated by papain cleavage, including 12 amino acids of the hinge region
[2] = target: T1, cystatin C from chicken, P01038
T1 chain: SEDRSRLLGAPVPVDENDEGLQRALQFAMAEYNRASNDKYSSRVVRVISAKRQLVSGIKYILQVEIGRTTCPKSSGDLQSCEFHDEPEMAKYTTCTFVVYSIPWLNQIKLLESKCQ

[3] = target: T2, antimicrobial peptide LL-37, P49913
T2 chain: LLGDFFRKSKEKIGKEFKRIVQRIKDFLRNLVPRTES

[4] = target: synthetic peptide homologous to amino acids 234 to 241 of human IgG
cystatin C, P01034 = target: T3, cystatin C, P01034
T3 chain: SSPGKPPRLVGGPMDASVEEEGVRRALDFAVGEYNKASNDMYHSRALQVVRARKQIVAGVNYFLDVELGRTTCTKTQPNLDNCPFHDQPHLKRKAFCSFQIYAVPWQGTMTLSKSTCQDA

[5] = target: the different subclasses of IgG
H-kininogen, P01042 = target: T4, H-kininogen, P01042
T4 chain: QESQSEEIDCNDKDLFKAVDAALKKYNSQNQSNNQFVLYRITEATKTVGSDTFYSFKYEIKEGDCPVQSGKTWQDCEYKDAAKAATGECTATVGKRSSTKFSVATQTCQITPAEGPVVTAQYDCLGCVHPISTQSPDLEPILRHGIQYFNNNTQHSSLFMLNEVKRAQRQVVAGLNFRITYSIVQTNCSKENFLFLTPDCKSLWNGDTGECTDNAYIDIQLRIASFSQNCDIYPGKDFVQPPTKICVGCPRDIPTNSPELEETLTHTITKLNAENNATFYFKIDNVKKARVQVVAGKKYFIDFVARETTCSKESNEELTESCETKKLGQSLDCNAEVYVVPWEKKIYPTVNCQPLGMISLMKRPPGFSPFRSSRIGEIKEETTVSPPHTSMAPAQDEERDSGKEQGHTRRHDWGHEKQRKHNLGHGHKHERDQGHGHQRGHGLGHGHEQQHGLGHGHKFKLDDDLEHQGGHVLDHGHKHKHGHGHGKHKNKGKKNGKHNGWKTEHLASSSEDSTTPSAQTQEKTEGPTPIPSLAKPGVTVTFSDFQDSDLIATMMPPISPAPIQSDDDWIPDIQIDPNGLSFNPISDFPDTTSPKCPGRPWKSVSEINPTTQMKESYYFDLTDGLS

Z-LVG-CHN2 = target: T5, Z-LVG-CHN2
T5 chain: LVG

[6] = target: T6, cystatin C from rat, P14841
T6 chain: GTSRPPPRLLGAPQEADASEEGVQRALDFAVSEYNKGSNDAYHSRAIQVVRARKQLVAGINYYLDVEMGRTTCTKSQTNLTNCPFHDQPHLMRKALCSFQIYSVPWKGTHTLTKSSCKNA

[7] = target: T7, cystatin C from mouse, P21460
T7 chain: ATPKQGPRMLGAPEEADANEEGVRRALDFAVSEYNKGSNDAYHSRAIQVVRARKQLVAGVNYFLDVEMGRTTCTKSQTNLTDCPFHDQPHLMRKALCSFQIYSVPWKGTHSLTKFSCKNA

fibrinogen, P02671 = target: T8, fibrinogen, P02671
T8 chain 1: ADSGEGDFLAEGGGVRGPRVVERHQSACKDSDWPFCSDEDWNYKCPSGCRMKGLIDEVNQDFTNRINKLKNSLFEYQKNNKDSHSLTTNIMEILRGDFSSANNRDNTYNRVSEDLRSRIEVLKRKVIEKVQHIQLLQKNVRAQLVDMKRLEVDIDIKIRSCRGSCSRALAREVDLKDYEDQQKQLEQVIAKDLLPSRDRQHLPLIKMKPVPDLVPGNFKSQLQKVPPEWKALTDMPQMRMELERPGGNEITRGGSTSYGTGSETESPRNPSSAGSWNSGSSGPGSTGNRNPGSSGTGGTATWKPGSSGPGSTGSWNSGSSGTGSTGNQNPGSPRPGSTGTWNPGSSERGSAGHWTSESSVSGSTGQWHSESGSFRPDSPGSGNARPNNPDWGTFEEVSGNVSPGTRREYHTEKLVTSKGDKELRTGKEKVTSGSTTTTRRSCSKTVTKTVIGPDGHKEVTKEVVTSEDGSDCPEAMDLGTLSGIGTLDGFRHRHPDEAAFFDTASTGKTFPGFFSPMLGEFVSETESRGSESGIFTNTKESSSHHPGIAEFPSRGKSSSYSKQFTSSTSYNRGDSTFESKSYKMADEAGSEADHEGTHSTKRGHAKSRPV
T8 chain 2: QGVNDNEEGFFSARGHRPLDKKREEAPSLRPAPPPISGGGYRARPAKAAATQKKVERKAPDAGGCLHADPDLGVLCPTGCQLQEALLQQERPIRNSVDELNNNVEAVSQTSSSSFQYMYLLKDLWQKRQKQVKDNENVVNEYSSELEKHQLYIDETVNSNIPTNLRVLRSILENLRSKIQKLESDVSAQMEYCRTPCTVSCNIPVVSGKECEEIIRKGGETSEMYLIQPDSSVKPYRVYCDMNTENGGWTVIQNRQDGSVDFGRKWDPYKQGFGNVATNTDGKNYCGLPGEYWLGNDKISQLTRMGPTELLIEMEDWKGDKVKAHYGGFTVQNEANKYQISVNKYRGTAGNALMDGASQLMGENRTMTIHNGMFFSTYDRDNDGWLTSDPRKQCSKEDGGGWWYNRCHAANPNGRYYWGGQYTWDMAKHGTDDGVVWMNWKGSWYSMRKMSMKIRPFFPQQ
T8 chain 3: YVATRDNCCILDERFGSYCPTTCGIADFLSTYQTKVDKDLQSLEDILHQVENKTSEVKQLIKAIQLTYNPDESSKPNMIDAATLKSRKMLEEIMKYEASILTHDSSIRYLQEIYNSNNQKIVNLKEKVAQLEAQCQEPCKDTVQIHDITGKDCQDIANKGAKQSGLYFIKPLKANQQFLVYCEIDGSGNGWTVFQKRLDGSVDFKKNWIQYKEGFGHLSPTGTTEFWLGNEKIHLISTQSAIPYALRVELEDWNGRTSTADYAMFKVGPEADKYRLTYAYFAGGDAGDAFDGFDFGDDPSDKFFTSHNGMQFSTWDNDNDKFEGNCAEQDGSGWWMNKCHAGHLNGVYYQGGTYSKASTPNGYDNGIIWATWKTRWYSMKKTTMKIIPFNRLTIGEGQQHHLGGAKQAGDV

cystatin D, P28325 = target: T9, cystatin D, P28325
T9 chain: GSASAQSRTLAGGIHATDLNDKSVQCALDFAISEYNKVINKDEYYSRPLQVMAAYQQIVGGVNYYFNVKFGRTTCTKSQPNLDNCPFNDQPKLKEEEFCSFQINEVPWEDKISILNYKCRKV

Sequence of α 1-antitrypsin, P01009 (P01009 whole entry, looked up): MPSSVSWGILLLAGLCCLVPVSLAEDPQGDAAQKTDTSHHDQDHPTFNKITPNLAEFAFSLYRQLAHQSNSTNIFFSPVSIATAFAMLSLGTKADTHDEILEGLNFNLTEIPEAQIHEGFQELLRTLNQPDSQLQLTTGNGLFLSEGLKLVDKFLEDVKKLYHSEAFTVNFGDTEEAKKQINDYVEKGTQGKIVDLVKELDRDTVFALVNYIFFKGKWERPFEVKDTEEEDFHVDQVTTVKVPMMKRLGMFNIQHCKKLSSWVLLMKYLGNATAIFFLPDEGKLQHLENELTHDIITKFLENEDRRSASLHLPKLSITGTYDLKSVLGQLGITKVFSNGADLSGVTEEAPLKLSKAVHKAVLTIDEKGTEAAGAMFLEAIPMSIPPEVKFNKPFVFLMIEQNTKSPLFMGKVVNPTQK
Sequence of transferrin, P02787 (P02787 20-698): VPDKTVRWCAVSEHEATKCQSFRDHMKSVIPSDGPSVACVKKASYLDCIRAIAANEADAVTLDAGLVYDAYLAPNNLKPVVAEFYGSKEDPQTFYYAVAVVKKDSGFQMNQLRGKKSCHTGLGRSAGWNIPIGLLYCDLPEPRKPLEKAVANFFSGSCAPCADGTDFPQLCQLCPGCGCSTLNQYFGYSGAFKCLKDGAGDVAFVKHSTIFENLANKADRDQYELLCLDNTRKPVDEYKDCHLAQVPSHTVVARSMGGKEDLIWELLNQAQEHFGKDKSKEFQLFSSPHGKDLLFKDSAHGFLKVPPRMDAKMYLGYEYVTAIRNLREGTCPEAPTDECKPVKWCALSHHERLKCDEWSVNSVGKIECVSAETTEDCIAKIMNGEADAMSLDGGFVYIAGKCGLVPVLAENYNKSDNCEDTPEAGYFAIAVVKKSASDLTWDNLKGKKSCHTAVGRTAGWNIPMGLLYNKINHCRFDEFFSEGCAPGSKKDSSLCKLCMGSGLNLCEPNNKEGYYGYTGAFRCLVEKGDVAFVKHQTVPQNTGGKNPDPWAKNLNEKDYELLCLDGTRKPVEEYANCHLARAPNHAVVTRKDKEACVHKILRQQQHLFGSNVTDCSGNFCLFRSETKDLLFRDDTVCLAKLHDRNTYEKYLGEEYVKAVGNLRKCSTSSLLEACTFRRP
Sequence of fibronectin, P02751 (P02751 other isoform, or with tags, fused parts or gaps): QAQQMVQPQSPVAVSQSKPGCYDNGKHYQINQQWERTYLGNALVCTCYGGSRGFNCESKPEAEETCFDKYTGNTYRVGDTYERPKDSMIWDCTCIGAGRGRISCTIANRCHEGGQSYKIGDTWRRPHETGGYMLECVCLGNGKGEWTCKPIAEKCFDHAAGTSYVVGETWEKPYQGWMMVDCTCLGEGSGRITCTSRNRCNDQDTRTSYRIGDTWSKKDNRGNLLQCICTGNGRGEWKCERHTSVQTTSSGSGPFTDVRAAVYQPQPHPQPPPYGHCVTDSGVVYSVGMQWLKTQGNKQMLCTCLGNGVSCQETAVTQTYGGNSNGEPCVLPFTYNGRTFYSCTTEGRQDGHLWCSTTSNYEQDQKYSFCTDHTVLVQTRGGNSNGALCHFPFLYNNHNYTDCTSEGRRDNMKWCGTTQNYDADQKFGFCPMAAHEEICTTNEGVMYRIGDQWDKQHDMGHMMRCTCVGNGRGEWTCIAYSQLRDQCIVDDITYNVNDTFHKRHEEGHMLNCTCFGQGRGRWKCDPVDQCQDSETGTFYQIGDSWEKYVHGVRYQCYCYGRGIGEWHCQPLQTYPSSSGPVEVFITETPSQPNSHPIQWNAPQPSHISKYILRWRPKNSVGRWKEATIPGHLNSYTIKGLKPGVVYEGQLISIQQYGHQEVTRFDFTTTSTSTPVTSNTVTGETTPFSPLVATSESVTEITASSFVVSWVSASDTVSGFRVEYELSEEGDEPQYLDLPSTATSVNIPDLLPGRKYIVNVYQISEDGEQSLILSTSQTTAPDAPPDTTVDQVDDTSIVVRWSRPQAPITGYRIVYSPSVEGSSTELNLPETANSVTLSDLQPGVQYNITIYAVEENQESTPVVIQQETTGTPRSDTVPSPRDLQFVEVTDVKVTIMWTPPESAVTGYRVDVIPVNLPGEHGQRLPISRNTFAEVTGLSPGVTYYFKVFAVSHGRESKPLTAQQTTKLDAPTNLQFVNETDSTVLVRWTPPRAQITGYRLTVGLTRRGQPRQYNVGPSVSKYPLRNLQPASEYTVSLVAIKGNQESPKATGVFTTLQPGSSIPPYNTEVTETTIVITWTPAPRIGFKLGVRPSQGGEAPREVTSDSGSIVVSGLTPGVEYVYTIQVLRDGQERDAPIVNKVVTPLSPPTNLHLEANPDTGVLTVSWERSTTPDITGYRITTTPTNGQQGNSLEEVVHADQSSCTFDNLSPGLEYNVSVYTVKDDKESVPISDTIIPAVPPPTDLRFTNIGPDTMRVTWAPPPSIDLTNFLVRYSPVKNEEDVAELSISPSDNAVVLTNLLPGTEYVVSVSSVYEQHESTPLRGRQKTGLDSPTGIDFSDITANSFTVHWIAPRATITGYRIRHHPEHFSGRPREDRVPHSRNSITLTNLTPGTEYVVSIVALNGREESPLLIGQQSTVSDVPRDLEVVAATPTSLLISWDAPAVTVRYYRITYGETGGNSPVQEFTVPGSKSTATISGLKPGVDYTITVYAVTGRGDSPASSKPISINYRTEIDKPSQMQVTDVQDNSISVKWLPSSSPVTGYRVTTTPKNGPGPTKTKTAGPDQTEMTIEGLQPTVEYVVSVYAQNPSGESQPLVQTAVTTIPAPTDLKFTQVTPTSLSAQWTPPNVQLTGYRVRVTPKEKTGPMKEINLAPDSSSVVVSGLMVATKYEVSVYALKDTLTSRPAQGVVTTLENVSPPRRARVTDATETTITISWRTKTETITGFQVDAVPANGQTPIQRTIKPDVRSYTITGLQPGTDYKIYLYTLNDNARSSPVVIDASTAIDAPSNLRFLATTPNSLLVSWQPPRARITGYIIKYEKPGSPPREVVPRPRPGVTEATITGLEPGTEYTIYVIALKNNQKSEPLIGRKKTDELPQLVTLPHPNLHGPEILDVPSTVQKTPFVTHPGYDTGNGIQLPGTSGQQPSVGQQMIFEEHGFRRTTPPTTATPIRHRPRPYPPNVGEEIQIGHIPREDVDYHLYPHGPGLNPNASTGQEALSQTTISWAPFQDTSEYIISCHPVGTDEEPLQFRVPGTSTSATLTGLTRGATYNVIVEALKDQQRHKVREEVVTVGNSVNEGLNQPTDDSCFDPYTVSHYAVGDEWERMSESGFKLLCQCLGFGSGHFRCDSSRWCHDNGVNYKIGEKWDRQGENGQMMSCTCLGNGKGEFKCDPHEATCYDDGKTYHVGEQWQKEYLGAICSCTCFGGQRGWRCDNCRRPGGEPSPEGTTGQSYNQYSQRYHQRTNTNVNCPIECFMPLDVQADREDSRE
Sequence of lactoferrin, P02788 (P02788 20-710): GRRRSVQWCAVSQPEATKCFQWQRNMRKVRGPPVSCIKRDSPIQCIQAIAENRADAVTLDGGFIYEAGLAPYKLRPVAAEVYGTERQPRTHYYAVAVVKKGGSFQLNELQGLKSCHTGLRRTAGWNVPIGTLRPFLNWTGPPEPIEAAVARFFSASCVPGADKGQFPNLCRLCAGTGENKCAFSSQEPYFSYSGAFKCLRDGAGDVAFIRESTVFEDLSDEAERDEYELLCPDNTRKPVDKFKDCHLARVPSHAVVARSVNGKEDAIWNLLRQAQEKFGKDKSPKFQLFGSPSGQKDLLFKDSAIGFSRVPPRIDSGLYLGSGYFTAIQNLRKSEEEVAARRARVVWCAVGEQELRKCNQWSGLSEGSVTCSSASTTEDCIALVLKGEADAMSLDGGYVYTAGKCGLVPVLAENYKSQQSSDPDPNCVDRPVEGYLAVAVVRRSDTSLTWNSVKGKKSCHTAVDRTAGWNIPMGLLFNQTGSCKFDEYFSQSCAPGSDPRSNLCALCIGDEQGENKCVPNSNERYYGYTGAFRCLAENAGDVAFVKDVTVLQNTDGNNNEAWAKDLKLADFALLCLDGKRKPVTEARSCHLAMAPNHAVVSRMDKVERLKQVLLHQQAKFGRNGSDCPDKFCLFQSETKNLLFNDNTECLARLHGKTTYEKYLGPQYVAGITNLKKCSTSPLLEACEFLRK

B1: IdeS (Immunoglobulin G-degrading enzyme of S. pyogenes), purified from culture supernatant of S. pyogenes strain AP1 (protein)
chain: DSFSANQEIRYSEVTPYHVTSVWTKGVTPPANFTQGEDVFHAPYVANQGWYDITKTFNGKDDLLCGAATAGNMLHWWFDQNKDQIKRYLEEHPEKQKINFNGEQMFDVKEAIDTKNHQLDSKLFEYFKEKAFPYLSTKHLGVFPDHVIDMFINGYRLSLTNHGPTPVKEGSKDPRGGIFDAVFTRGDQSKLLTSRHDFKEKNLKEISDLIKKELTEGKALGLSHTYANVRINHVINLWGADFDSNGNLKAIYVTDSDSNASIGMKKYFVGVNSAGKVAISAKEIKEDNIGAQVLGLFTLSTGQDSWNQTN
- cleavage products (laminin): No cleavage products could be detected
- cleavage [1]: a Fc-fragment generated by papain cleavage, including 12 amino acids of the hinge region is cleaved by IdeS
- cleavage products (transferrin, P02787): No cleavage products could be detected
- cleavage products (aprotinin, P00974): No cleavage products could be detected
- cleavage products (whole human plasma): No cleavage products could be detected
- cleavage products [2]: No cleavage products could be observed
- degradation of the peptide [3]: did not reveal any degradation of the peptides
- degradation of the peptide [4]: did not reveal any degradation of the peptides
- cleavage products (lactoferrin, P02788): No cleavage products could be detected
- cleavage products (cystatin C, P01034): No cleavage products could be detected
- cleavage products (albumin, P02768): No cleavage products could be detected
- IdeS digestion [5]: all were susceptible for IdeS digestion
- cleavage products (fibronectin, P02751): No cleavage products could be detected
- cleavage products (H-kininogen, P01042): No cleavage products could be detected
- cleavage of the peptide (Z-LVG-CHN2): Neither was the synthetic peptide Z-LVG-CHN2, which inhibits IdeS activity, cleaved by excess IdeS
- cleavage products [6]: No cleavage products could be observed
- cleavage products [7]: No cleavage products could be observed
- cleavage products (fibrinogen, P02671): No cleavage products could be detected
- cleavage products (α 1-antitrypsin, P01009): No cleavage products could be detected
- cleavage products (cystatin D, P28325): No cleavage products could be detected
